Experimental data from patent publication US5731185.

Test system: HphI restriction endonuclease (Haemophilus parahaemolyticus)
Assay: cleavage_in_vitro
Conditions: crude extract cleaves lambda DNA; pAGR3-Rg1 clones in ER2252 about 750 units/g

For lambda DNA, the activity (units/g cells) was 5000.
